Data set [1] addresses T1, follicle-stimulating hormone (FSH) (Homo sapiens (Human)., UniProt P01215;P01225).
T1 construct: FSH alpha subunit (FSHα, glycoprotein hormones alpha chain); FSH beta subunit (FSHβ); Heterodimeric hormone
The data set can be described thus: protein thermal shift assay; antibody incubated with FSH; right-shift in melting temperature (Tm) of the ligand-binding Fab domain. The settings on record: both partners purified.

In data set [2] the target is T1, follicle-stimulating hormone (FSH). The data set can be described thus: cell-based or functional assay.

T1 sequence (P01215 25-116, chain 1 of 2): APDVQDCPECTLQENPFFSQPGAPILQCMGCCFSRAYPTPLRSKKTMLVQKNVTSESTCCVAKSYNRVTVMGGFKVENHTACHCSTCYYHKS
T1 sequence (P01225 19-129, chain 2 of 2): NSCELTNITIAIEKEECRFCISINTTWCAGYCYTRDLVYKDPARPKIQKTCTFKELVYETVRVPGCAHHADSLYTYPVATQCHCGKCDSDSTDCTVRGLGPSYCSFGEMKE

B1: MS-Hu6 (antibody, V domains shown)
VH: QVQLQESGPGLVKPSQTLSLTCTVSGFSITSDYAWNWIRQPPGKGLEWIGSIFSSGSINYNPSLKSRVTISRDTSKNQFSLKLSSVTAADTAVYYCARGGTGTDYWGQGTLVTVSS
VL: DIQMTQSPSSLSASVGDRVTITCRASQDISNYLSWYQQKPGKAIKLLIYYTSRLHSGVPSRFSGSGSGTDYTLTISSLQPEDFATYFCQQGHTLPPTFGGGTKVEIK
notes: humanized VH and CH1; heavy chain of the Fab fragment (Hu6-Fab) deposited as PDB 8VZW; hinge and Fc of the full-length IgG; humanized VL and CL; light chain of the Fab fragment (Hu6-Fab) deposited as PDB 8VZW; the chimeric precursor used human IgK-CL; Full-length humanized IgG derived from the murine antibody Hf2 with the CDRs unaltered; The crystal was of the Fab fragment only
For the molecule B1, the “right-shift in Tm of the Fab domain” value in data set [1] was roughly 1.8 °C. Further, in data set [2], the “EC50 based on UCP1 activation in dedifferentiated brown adipocytes (Thermo cells)” value was 3.21 nM, the “IC50 for cAMP inhibition in SH-SY5Y human neuroblastoma cells” value came to 2.01 nM and the “IC50 of inhibition of cAMP elevation in response to FSH (5 μg/mL) in KGN human ovarian cancer cells” value came out at 0.64 nM.
